Results published in US20220010018A1 (ALBERT EINSTEIN COLLEGE OF MEDICINE, published 2022).

T1: Human B7-H3 (human, UniProt Q5ZPR3 29-461, limits assumed)
T1 construct: also called human B7-H3 (SPR antigen)
T1 sequence: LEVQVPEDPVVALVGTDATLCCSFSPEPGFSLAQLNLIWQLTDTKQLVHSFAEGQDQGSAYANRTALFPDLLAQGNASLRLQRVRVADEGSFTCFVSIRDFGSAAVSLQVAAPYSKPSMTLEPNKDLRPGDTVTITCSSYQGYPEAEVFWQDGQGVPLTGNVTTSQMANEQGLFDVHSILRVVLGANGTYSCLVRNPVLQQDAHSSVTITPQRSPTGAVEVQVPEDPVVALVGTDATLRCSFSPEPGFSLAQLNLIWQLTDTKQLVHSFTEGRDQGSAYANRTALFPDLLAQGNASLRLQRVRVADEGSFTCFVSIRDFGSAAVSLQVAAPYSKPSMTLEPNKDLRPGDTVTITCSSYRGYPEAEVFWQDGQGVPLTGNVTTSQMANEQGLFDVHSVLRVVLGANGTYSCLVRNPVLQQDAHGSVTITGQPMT

T2: Mouse B7-H3 (mouse, UniProt Q8VE98 29-244, limits assumed)
T2 construct: The construct used in SPR is not described; also called mouse B7-H3 (SPR antigen)
T2 sequence (looked up): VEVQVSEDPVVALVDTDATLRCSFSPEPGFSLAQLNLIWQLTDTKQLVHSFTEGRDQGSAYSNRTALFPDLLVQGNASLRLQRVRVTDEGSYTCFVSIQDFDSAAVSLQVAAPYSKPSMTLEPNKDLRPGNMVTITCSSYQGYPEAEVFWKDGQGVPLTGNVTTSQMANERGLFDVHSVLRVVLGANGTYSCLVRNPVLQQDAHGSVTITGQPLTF


Key:
[1] = biological target: T1, Human B7-H3; assay: Surface Plasmon Resonance
[2] = biological target: T2, Mouse B7-H3; assay: Surface Plasmon Resonance

Kd [1] [nM] | koff [1] [s⁻¹] | kon [1] [M⁻¹ s⁻¹] | Kd [2] [nM] | koff [2] [s⁻¹] | kon [2] [M⁻¹ s⁻¹] | Binder
8.23 | 0.00509 | 618000 | 15.4 | 0.0184 | 1.19e+06 | monoclonal antibody 12B4 (antibody, IgG2b, V domains shown, Residue limits come from CLM-00006; also called mAb 12B4) VH: QVQLQQPGAELVKPGASVKLSCKASGYTFTSYWMHWVKQRPGQGLEWIGMIHPNSGSTNYNEKFKSKATLTVDKSSSTAYMQLSSLTSEDSAVYYCARYYYGSSYAMDYWGQGTSVTVS VL: QIVLTQSPAIMSASPGEKVTITCSASSSVSYMHWFQQKPGTSPKLWIYSTSNLASGVPARFSGSGSGTSYSLTISRMEAEDAATYYCQQRSSYPYTFGGGTKLEIKR
0.3 | 0.000459 | 1.51e+06 | 4.01 | 0.00237 | 592000 | monoclonal antibody 8B12 (antibody, IgG3, V domains shown, Residue limits come from CLM-00006; also called mAb 8B12) VH: QVQLQQPGAELVKPGASVKMSCKASGYTFTSYWITWVKQRPGQGLEWIGDIYPGSGSTNYNEKFKSKATLTVDTSSSTAYMQLSSLTSEDSAVYYCARGGTRFSPFAYWGQGTLVTVSA VL: DVLMTQTPLSLPVSLGDQASISCRSSQSIVHSNGNTYLEWYLQKPGQSPKLLIYKVSNRFSGVPDRFSGSGSGTDFTLKISRVEAEDLGVYYCFQGSHVPWTFGGGTKLEIKR
